From EP4389150A1, “CONJUGATE COMPOUNDS AND THEIR USE IN CANCER TREATMENT AND DIAGNOSIS” (Technische Universität München, priority 2022, dated 2024) come the findings set out here.

Where two headings read alike, the source gives them in different places. Where a SMILES comes first, the peptide text is derived from it. [ ]: non-standard residue; d: D form. The star is where a group is joined. X1 = CN(Cc1ccc(-c2[nH]c3cc(F)cc4c3c2CCNC4=O)cc1)C(=O)CCS*; EuK = O=C(O)CC[C@H](NC(=O)N[C@@H](CCCCN*)C(=O)O)C(=O)O; Ahx = NCCCCCC(=O)O; Mpa = O=C(O)CCS

By IC50 is commonly meant the concentration needed to halve the response being measured.

Data set [1] relates to PC3-PIP/PC3-flu bilateral tumor model. It is filed as in vivo, Athymic nude mice.
Description: In vivo experiment. Athymic nude mice were subcutaneously injected with 4×10^6 PC3-PIP (PSMA+) and 3×10^6 PC3-Flu (PSMA-) cells to produce a bilateral tumor model.
At the completion of the imaging study, mice were euthanized and organs were resected, weight, and analyzed by gamma counting to determine tracer biodistribution. Data are ported as percentage of injected activity per gram of tissue (%IA/g).
At the completion of the imaging study, mice were euthanized and organs were resected, weighted, and analyzed by gamma counting to determine tracer biodistribution. Biodistribution data are reported as percentage of injected dose per gram of tissue (%ID/g).
A short description of data set [2]: Lipophilicity, n-octanol/PBS distribution coefficient. It is filed as physicochemical. As to the method: Lipophilicity of the conjugates was determine after radiolabeling with ^68Ga. The PSMA ligand (0.80 MBq) was dissolved in PBS (500 µL/pH 7.4) in a reaction vial (1.5 mL; n = 10). Afterwards, n-octanol was added (500 µL) and the mixture was rigorously vortexed for 3 min. Subsequent centrifugation (Biofuge 15, Heraus Sepatech, Osterode, Germany) at 13,000 rpm for 5 min led to a phase separation. After measuring 100 µL of each phase in a γ-counter, the distribution coefficient (logD(O/PBS)) was calculated with Microsoft Excel.

Another data set addresses T1, PSMA (Homo sapiens, UniProt Q04609).
T1 construct: endogenous in cells; host or cells: LNCaP cells
Nature of the data set: IC50 determination by competition with [68Ga]-PSMA-617 on LNCaP cells. The following applies: [68Ga]-PSMA-617 0.4 nM, 60 min on ice, natGa-labelled ligands. The class given is binding. Here is the method: In the meantime, dilution series of the compounds were prepared in 1% BSA (w/v)/HBSS in a separate 96 U-bottom deep well plate ranging from 12 µM to 153.6 pM in 1:5 dilution steps. Next, solutions (25 µL/well) of either 1% BSA (w/v)/HBSS (control) or of the respective dilution series were transferred to the LNCaP cells containing plate. Hereby, each concentration was pipetted in triplicates and each experiment was repeated three times. Subsequently, [^68Ga]-PSMA-617 (25 µL/well; 0.4 nM final concentration; AM = 26-30 MBq/nmol) in 1% BSA (w/v)/HBSS was added to all wells and the plate was incubated for 60 min on ice. Afterwards, the experiment was terminated by centrifugation at 600 g for 3 min and removal of the supernatant. The cells were then washed with ice-cold HBSS (150 µL/well), centrifuged (600 g, 3 min), and the supernatant as well as the washing fraction were combined, representing the amount of free, unbound radioligand. Bound radioligand was obtained by lysis of the cells with 1.0 N NaOH (150 µL/well; 10 min on ice). Afterwards, the plate was washed a second time with 1.0 N NaOH (150 µL/well). Hereby, the washing step was combined with the NaOH fraction. The quantification of bound and free radioligand was finally accomplished via measuring the samples in a γ-counter.

A further data set has as its system LNCaP cells. The experiment in a line: Binding and internalization (cell uptake) of 68Ga-labelled PSMA ligands in LNCaP cells. The class given is cell-based. Here is the method: To determine ligand internalization, LNCaP cells were seeded in a 96 V-bottom well plate at a density of 100,000 cells/well in 5% BSA (w/v)/RPMI medium (100 µL/well) and incubated for 30 min at 37 °C. Afterwards, solutions (25 µL/well) of either 5% BSA (w/v)/RPMI medium or of 2-PMPA (final concentration: 10 µM) in 5% BSA (w/v)/RPMI medium for blockade were added. Then, a solution of the ^68Ga-labeled PSMA-ligand (25 µL/well; 0.4 nM final concentration; AM = 26-30 MBq/nmol) was added to all wells, and the cells were incubated for 5, 15, 30, and 60 min, respectively, at 37 °C. Hereby, each time point was performed in triplicates and each experiment was repeated three times. The internalization process was terminated by placing the plate for 5 min on ice. The free radioligand was obtained by centrifugation of the plate at 600 g for 3 min and removal of the supernatant. Each well was then washed with ice-cold PBS and the fractions of the first two steps were combined. For removal of cell-bound PSMA-ligand, the cells were treated in a next step with ice-cold 2-PMPA-solution (10 µM in PBS; 150 µL/well; 15 min on ice), centrifuged (600 g, 3 min), and washed with ice-cold PBS (150 µL/well). The fractions were again combined. For the analysis of internalized radioligand, the fractions of a 1.0 N NaOH (150 µL/well; 10 min on ice) treatment as well as a concomitant washing step with 1.0 N NaOH (150 µL/well) were pooled. Free, surface bound, and internalized activity, respectively, was measured in a γ-counter.

For data set [3], the target named is prostate-specific membrane antigen (PSMA) (UniProt Q04609). Nature of the data set: cell uptake of 68Ga-labelled ligand (0.4 nM) on LNCaP cells, gamma counting.
Data set [4] has the same target. The experiment in a line: competition with [68Ga]-PSMA-617 (0.4 nM) on LNCaP cells, 60 min on ice.
Setting [5] is: 68Ga-labelled, 2 nmol via tail vein, 60 min p.i.

T1 sequence (Q04609 whole entry): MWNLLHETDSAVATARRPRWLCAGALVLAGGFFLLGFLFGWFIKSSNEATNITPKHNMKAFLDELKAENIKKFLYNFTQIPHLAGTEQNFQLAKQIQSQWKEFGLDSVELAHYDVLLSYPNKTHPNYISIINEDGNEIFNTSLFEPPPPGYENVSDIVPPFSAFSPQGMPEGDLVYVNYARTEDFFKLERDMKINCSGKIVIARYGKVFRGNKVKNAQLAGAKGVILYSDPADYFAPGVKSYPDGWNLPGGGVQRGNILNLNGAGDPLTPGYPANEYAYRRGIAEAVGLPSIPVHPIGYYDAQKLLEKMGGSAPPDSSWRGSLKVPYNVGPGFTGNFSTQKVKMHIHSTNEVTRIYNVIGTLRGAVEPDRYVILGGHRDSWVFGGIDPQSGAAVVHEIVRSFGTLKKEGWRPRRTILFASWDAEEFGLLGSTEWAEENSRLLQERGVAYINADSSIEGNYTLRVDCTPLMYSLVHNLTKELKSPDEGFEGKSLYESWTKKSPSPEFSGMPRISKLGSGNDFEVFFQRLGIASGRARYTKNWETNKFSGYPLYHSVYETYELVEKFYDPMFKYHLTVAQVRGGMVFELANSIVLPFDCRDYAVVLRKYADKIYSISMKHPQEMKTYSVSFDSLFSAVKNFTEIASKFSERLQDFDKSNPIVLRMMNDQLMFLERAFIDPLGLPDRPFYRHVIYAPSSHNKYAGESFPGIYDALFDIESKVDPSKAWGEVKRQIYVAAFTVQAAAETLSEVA
Sequence of prostate-specific membrane antigen (PSMA) (Q04609 whole entry): as above

Turning to `CN(Cc1ccc(-c2[nH]c3cc(F)cc4c3c2CCNC4=O)cc1)C(=O)CCSSCCC(=O)NCCCCN1CCN(CC(=O)O)CCN(C(CCC(=O)N[C@H](CC(=O)O)C(=O)N[C@H](CC(=O)O)C(=O)NCCC(=O)NC[C@H]2CC[C@H](C(=O)N[C@@H](Cc3ccc4ccccc4c3)C(=O)NCCCC[C@@H](NC(=O)CC[C@H](NC(=O)N[C@@H](CCC(=O)O)C(=O)O)C(=O)O)C(=O)O)CC2)C(=O)O)CCN(CC(=O)O)CC1` (single isomer, unassigned) [Conjugate 18], in data set [1] (setting [5]), the PiP/muscle ratios is more than 25 and the “PiP:Flu ratios” value is listed as more than 8. Further, the “tumor uptake (PET/CT, biodistribution)” value in data set [1] (PSMA+ PC3-PIP versus PSMA- PC3-Flu tumors, 60 min p.i.) was “selective uptake in PC3-PiP tumors and low uptake in PC3-Flu tumors and other organs”.

With `CN(Cc1ccc(-c2[nH]c3cc(F)cc4c3c2CCNC4=O)cc1)C(=O)CCSSCCC(=O)NC[C@H]1CC[C@H](C(=O)N[C@@H](Cc2ccc3ccccc3c2)C(=O)NCCCC[C@H](NC(=O)N[C@@H](CCC(=O)O)C(=O)O)C(=O)O)CC1` [Conjugate 7], in data set [2] (pH 7.4), the “logD (n-oct/PBS)” value was -2.98 ± 0.21. At PSMA, this molecule returned an IC50 of 9.52 ± 2.41 nM.

As to `CN(Cc1ccc(-c2[nH]c3cc(F)cc4c3c2CCNC4=O)cc1)C(=O)CCSSCCC(=O)N[C@H](CC(=O)O)C(=O)N[C@H](Cc1ccc(O)cc1)C(=O)N[C@H](Cc1ccccc1)C(=O)N[C@H](Cc1ccccc1)C(=O)NCCCCCC(=O)NCCCC[C@H](NC(=O)N[C@@H](CCC(=O)O)C(=O)O)C(=O)O` [Conjugate 8] ([Mpa](X1)[dD][dY][dF][dF][Ahx]-EuK), the “logD (n-oct/PBS)” value in data set [2] (pH 7.4) is reported as -2.83 ± 0.07. The molecule further displayed an IC50 on PSMA of 1.58 ± 0.94 nM.

For the molecule `CN(Cc1ccc(-c2[nH]c3cc(F)cc4c3c2CCNC4=O)cc1)C(=O)CCSSCCC(=O)NCCCC[C@@H](NC(=O)CCC(C(=O)O)N1CCN(CC(=O)O)CCN(CC(=O)O)CCN(CC(=O)O)CC1)C(=O)N[C@H](CC(=O)O)C(=O)NCCC(=O)NC[C@H]1CC[C@H](C(=O)N[C@@H](Cc2ccc3ccccc3c2)C(=O)NCCCC[C@H](NC(=O)N[C@@H](CCC(=O)O)C(=O)O)C(=O)O)CC1` (stereo partly shown) [Conjugate 9], the biodistribution profile entry in data set [1] (68Ga-labelled, 1 h post-injection) was “uptake is limited to PSMA+ tumors and kidneys”. The “% bound of total applied dose” value with LNCaP cells is given as 8.00 ± 1.27%. For the same molecule, the logD in data set [2] (pH 7.4) is -2.1 ± 0.24. Moreover, the IC50 on PSMA stood at 3.03 ± 0.2 nM.

`CN(Cc1ccc(-c2[nH]c3cc(F)cc4c3c2CCNC4=O)cc1)C(=O)CCSSCCC(=O)NCCCCN1CCN(CC(=O)O)CCN(C(CCC(=O)N[C@H](CC(=O)O)C(=O)N[C@H](CC(=O)O)C(=O)NCCC(=O)NC[C@H]2CC[C@H](C(=O)N[C@@H](Cc3ccc4ccccc4c3)C(=O)NCCCC[C@H](NC(=O)N[C@@H](CCC(=O)O)C(=O)O)C(=O)O)CC2)C(=O)O)CCN(CC(=O)O)CC1` (stereo partly shown) [Conjugate 14]: in the data set on LNCaP cells, the “% bound of total applied dose” value came out at 6.46 ± 0.98%. The molecule also came in with a logD in data set [2] (pH 7.4) of -3.42 ± 0.15. In addition, the IC50 on PSMA is 2.19 ± 0.37 nM.

On to `CN(Cc1ccc(-c2[nH]c3cc(F)cc4c3c2CCNC4=O)cc1)C(=O)CCSSCCC(=O)NCCCCN1CCN(CC(=O)O)CCN(C(CCC(=O)N[C@H](CC(=O)O)C(=O)N[C@H](CC(=O)O)C(=O)N[C@H](Cc2ccc(O)cc2)C(=O)N[C@H](Cc2ccccc2)C(=O)N[C@H](Cc2ccccc2)C(=O)NCCCCCC(=O)NCCCCCC(=O)NCCCC[C@H](NC(=O)N[C@@H](CCC(=O)O)C(=O)O)C(=O)O)C(=O)O)CCN(CC(=O)O)CC1` (stereo partly shown) [Conjugate 15], for which, in the data set with LNCaP cells, the “% bound of total applied dose” value worked out at 6.50 ± 0.50%. In data set [2] (pH 7.4), this molecule gave a logD of -3.4 ± 0.07. At PSMA, this molecule yielded an IC50 of 4.28 ± 0.95 nM.

For the molecule `O=C(O)CC[C@H](NC(=O)N[C@@H](CCCCNC(=O)[C@H](Cc1ccc2ccccc2c1)NC(=O)[C@H]1CC[C@H](CNC(=O)CN2CCN(CC(=O)O)CCN(CC(=O)O)CCN(CC(=O)O)CC2)CC1)C(=O)O)C(=O)O` [PSMA-617], in the data set on LNCaP cells (60 min incubation with 0.4 nM 68Ga-labelled conjugates), the “% bound of total applied dose” value amounted to 10.23 ± 0.86%. Further, the logD in data set [2] (n-octanol/PBS pH 7.4, after radiolabeling with 68Ga, read-out: logD (n-oct/PBS)) is -3.62 ± 0.49. On PSMA, the IC50 amounted to 1.75 ± 0.16 nM.

PSMA-617 yielded a % bound of total applied dose in data set [3] of 10.2%.

In turn, “PSMARuc-9: DOTAGA-D-Lys(Ruc-SS)-D-Asp-β-Ala-TXA-L-Nal-KuE (peptide)” returned a % bound of total applied dose in data set [3] of 8%. Also, in data set [4], the IC50 was determined as 3.03 nM.

In data set [3], “PSMARuc-10: DOTAGA-D-Lys(Ruc-SS)-D-Asp-D-Tyr-D-Phe-D-Phe-Ahx-KuE (peptide)” gave a % bound of total applied dose of 6.18%. In addition, the IC50 in data set [4] was determined as 1.34 nM.

In data set [3], “PSMARuc-11: DOTAGA-D-Lys(Ruc-SS)-D-Asp-D-Tyr-D-Phe-L-Nal-Ahx-KuE (peptide)” yielded a % bound of total applied dose of 6.45%. Also, the IC50 in data set [4] came out at 5.34 nM.

“PSMARuc-12: DOTAGA-D-Lys(Ruc-SS)-D-Asp-D-Tyr-D-Phe-D-Phe-Ahx-Ahx-KuE (peptide)” gave a % bound of total applied dose in data set [3] of 3.48%. The IC50 in data set [4] was 2.12 nM.

For the molecule “PSMARuc-13: DOTAGA-D-Lys(Ruc-Sub)-D-Asp-β-Ala-TXA-L-Nal-KuE (peptide)”, the % bound of total applied dose in data set [3] was found to be 10.8%. This molecule showed a 50% inhibitory concentration (IC50) in data set [4] of 0.67 nM.

With “PSMARuc-14: Ruc-SS-MMC-D-Asp-D-Asp-β-Ala-TXA-L-Nal-KuE (peptide)”, in data set [3], the % bound of total applied dose is 6.46%. The molecule further gave an IC50 in data set [4] of 2.19 nM.

On to “PSMARuc-15: Ruc-SS-MMC-D-Asp-D-Asp-D-Tyr-D-Phe-D-Phe-Ahx-Ahx-KuE (peptide)”, for which the % bound of total applied dose in data set [3] amounted to 6.5%. The IC50 in data set [4] was 4.28 nM.

Turning to “PSMARuc-16: DOTAGA-D-Lys(Ruc-SS)-D-Asp-D-Asp-β-Ala-TXA-L-Nal-D-Lys-EuE (peptide)”, the % bound of total applied dose in data set [3] came to 5.32%. The IC50 in data set [4] came to 0.82 nM.

In data set [3], “PSMARuc-17: DOTAGA-D-Lys(Ruc-SS)-D-Asp-D-Asp-D-Tyr-D-Phe-D-Phe-Ahx-D-Lys-EuE (peptide)” came in with a % bound of total applied dose of 5.84%. Moreover, the IC50 in data set [4] came out at 1.38 nM.

On to “PSMARuc-18: Ruc-SS-MMC-D-Asp-D-Asp-β-Ala-TXA-L-Nal-D-Lys-EuE (peptide)”, for which, in data set [3], the % bound of total applied dose was 6.54%. Further, in data set [4], the IC50 amounted to 0.69 nM.

In data set [4], “Ruc-SS-D-Asp-D-Tyr-D-Phe-D-Phe-Ahx-KuE (PSMARuc-8) (peptide)” gave an IC50 of 1.58 nM.

Turning to “Ruc-SS-TXA-L-Nal-KuE (PSMARuc-7) (peptide)”, the half-inhibitory concentration (IC50) in data set [4] worked out at 9.52 nM.
